From patent US20260250318A1, “COMPOSITIONS AND METHODS FOR CROSSING THE BLOOD BRAIN BARRIER” (VOYAGER THERAPEUTICS, INC., priority 2022, published 2026)

Assays:
[1] = biological target: T1, human ALPL expressed on cells (alkaline phosphatase tissue-nonspecific isozyme, NM_000478.4) (human, UniProt P05186 18-501); assay: binding/internalization: AAV incubated 2 or 3 h with ALPL transfected HEK 293T cells, washed, viral genomes quantified
T1 construct: also called ALPL receptor; human ALPL protein (NM_000478.6)
T1 sequence: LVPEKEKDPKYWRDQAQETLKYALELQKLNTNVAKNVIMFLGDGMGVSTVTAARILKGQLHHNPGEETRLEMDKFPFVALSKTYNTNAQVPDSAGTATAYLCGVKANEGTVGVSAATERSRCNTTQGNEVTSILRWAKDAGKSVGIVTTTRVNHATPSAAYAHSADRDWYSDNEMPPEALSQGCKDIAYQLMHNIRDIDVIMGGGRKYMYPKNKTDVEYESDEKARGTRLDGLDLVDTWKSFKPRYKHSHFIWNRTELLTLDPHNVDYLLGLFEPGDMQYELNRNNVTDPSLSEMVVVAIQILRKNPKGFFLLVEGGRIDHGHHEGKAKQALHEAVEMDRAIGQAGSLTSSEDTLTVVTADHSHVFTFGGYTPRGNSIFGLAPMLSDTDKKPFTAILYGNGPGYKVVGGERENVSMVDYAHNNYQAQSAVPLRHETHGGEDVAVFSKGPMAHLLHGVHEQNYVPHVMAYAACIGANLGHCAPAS

[2] = biological target: T2, murine ALPL ortholog expressed on HEK 293T cells (NM_001287172.1) (mouse, UniProt P09242 18-501); assay: cell-based or functional assay
T2 sequence: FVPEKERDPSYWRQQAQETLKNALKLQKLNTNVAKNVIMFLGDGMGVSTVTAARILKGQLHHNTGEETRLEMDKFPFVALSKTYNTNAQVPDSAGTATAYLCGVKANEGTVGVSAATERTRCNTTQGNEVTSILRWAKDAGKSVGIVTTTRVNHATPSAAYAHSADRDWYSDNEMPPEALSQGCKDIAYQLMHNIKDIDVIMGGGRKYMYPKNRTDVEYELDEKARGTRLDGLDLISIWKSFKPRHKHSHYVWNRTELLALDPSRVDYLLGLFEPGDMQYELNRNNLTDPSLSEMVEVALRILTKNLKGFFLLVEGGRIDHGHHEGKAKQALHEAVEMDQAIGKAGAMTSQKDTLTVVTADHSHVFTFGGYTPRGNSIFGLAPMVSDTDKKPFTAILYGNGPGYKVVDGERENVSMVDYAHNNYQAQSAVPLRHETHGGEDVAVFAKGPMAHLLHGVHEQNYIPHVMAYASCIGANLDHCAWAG

[3] = biological target: T1, human ALPL expressed on cells (alkaline …); assay: cell-based or functional assay
[4] = biological target: T1, human ALPL expressed on cells (alkaline …); assay: cell-based or functional assay; remark: listed apart in the source
[5] = biological target: T3, AAVR (universal AAV entry factor) expressed on HEK 293T cells (UniProt Q8IZA0 1-1049); assay: binding/internalization: AAV incubated 2 or 3 h with AAVR transfected HEK 293T cells, washed, viral genomes quantified
T3 construct: whole, on cells; also called AAVR positive control
T3 sequence: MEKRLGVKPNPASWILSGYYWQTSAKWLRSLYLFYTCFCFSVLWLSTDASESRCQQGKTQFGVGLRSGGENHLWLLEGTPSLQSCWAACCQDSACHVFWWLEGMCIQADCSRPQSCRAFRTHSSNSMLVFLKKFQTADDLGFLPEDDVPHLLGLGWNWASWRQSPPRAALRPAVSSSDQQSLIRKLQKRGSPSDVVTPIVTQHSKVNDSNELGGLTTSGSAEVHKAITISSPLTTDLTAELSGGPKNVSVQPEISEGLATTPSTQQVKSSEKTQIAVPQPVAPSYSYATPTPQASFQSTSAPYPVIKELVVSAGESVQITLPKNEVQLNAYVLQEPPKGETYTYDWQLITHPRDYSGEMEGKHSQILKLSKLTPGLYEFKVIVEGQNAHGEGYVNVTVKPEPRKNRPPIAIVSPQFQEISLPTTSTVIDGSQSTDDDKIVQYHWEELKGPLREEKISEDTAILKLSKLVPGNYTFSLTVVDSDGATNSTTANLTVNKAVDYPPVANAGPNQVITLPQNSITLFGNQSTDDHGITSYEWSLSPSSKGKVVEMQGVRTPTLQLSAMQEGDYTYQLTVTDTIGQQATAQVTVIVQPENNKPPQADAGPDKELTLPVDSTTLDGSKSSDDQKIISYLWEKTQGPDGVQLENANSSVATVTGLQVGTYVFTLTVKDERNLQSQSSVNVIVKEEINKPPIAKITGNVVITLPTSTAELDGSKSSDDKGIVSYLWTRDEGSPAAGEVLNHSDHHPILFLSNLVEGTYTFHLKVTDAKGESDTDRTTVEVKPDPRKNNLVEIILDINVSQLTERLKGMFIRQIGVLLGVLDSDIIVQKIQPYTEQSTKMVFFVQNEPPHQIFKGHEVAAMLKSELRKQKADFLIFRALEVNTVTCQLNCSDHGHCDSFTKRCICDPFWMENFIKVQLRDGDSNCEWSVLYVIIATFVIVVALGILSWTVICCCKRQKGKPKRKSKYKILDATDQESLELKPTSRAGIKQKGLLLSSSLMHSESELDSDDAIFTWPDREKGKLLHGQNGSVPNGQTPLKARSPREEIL

[6] = biological target: T1, human ALPL expressed on cells (alkaline …); assay: cell-based or functional assay; remark: listed apart in the source
[7] = biological target: T4, ALPL with a deletion of the ER localization signal (ALPL transcript variant 2, NM_001127501) (human, UniProt P05186 56-501); assay: cell-based or functional assay
T4 sequence: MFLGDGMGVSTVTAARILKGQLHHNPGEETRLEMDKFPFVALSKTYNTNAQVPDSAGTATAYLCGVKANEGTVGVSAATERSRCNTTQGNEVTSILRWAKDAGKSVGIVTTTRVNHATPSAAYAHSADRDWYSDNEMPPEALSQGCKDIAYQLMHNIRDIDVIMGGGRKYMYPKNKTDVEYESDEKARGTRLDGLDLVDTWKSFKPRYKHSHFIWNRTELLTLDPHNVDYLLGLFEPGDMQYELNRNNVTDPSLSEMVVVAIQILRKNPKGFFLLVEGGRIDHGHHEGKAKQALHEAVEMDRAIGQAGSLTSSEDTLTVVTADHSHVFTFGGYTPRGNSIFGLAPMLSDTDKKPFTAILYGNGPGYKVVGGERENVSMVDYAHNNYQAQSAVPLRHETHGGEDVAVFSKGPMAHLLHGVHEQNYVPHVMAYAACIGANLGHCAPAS

B1: TTM-001 capsid variant (AAV particle comprising the TTM-001 AAV9 capsid variant) (other)
chain 1: MAADGYLPDWLEDNLSEGIREWWALKPGAPQPKANQQHQDNARGLVLPGYKYLGPGNGLDKGEPVNAADAAALEHDKAYDQQLKAGDNPYLKYNHADAEFQERLKEDTSFGGNLGRAVFQAKKRLLEPLGLVEEAAKTAPGKKRPVEQSPQEPDSSAGIGKSGAQPAKKRLNFGQTGDTESVPDPQPIGEPPAAPSGVGSLTMASGGGAPVADNNEGADGVGSSSGNWHCDSQWLGDRVITTSTRTWALPTYNNHLYKQISNSTSGGSSNDNAYFGYSTPWGYFDFNRFHCHFSPRDWQRLINNNWGFRPKRLNFKLFNIQVKEVTDNNGVKTIANNLTSTVQVFTDSDYQLPYVLGSAHEGCLPPFPADVFMIPQYGYLTLNDGSQAVGRSSFYCLEYFPSQMLRTGNNFQFSYEFENVPFHSSYAHSQSLDRLMNPLIDQYLYYLSKTINGSGSPHSKAQNQQTLKFSVAGPSNMAVQGRNYIPGPSYRQQRVSTTVTQNNNSEFAWPGASSWALNGRNSLMNPGPAMASHKEGEDRFFPLSGSLIFGKQGTGRDNVDADKVMITNEEEIKTTNPVATESYGQVATNHQSAQAQAQTGWVQNQGILPGMVWQDRDVYLQGPIWAKIPHTDGNFHPSPLMGGFGMKHPPPQILIKNTPVPADPPTAFNKDKLNSFITQYSTGQVSVEIEWELQKENSKRWNPEIQYTSNYYKSNNVEFAVNTEGVYSEPRPIGTRYLTRNL
chain 2: TAPGKKRPVEQSPQEPDSSAGIGKSGAQPAKKRLNFGQTGDTESVPDPQPIGEPPAAPSGVGSLTMASGGGAPVADNNEGADGVGSSSGNWHCDSQWLGDRVITTSTRTWALPTYNNHLYKQISNSTSGGSSNDNAYFGYSTPWGYFDFNRFHCHFSPRDWQRLINNNWGFRPKRLNFKLFNIQVKEVTDNNGVKTIANNLTSTVQVFTDSDYQLPYVLGSAHEGCLPPFPADVFMIPQYGYLTLNDGSQAVGRSSFYCLEYFPSQMLRTGNNFQFSYEFENVPFHSSYAHSQSLDRLMNPLIDQYLYYLSKTINGSGSPHSKAQNQQTLKFSVAGPSNMAVQGRNYIPGPSYRQQRVSTTVTQNNNSEFAWPGASSWALNGRNSLMNPGPAMASHKEGEDRFFPLSGSLIFGKQGTGRDNVDADKVMITNEEEIKTTNPVATESYGQVATNHQSAQAQAQTGWVQNQGILPGMVWQDRDVYLQGPIWAKIPHTDGNFHPSPLMGGFGMKHPPPQILIKNTPVPADPPTAFNKDKLNSFITQYSTGQVSVEIEWELQKENSKRWNPEIQYTSNYYKSNNVEFAVNTEGVYSEPRPIGTRYLTRNL
chain 3: MASGGGAPVADNNEGADGVGSSSGNWHCDSQWLGDRVITTSTRTWALPTYNNHLYKQISNSTSGGSSNDNAYFGYSTPWGYFDFNRFHCHFSPRDWQRLINNNWGFRPKRLNFKLFNIQVKEVTDNNGVKTIANNLTSTVQVFTDSDYQLPYVLGSAHEGCLPPFPADVFMIPQYGYLTLNDGSQAVGRSSFYCLEYFPSQMLRTGNNFQFSYEFENVPFHSSYAHSQSLDRLMNPLIDQYLYYLSKTINGSGSPHSKAQNQQTLKFSVAGPSNMAVQGRNYIPGPSYRQQRVSTTVTQNNNSEFAWPGASSWALNGRNSLMNPGPAMASHKEGEDRFFPLSGSLIFGKQGTGRDNVDADKVMITNEEEIKTTNPVATESYGQVATNHQSAQAQAQTGWVQNQGILPGMVWQDRDVYLQGPIWAKIPHTDGNFHPSPLMGGFGMKHPPPQILIKNTPVPADPPTAFNKDKLNSFITQYSTGQVSVEIEWELQKENSKRWNPEIQYTSNYYKSNNVEFAVNTEGVYSEPRPIGTRYLTRNL
B1 was tested, and the “fold change in viral gene expression (2^-ΔΔCT) relative to pCMV6 transfected cells” value [1] was 3.16 fold, the “fold change in luciferase activity relative to the pCMV6 control cells (cells transfected with murine ALPL protein)” value [2] was 18 fold and the “fold change in luciferase activity relative to the pCMV6 control cells (cells transfected with human ALPL protein)” value [3] was 22 fold. For the same binder, the “luciferase activity, fold change relative to pCMV6 transfected HEK 293T cells (ALPL transfected cells)” value [4] was 35 fold, the “fold change in viral gene expression (2^-ΔΔCT) relative to pCMV6 transfected cells” value [5] was 6.64 fold and the “fold change in luciferase activity relative to the pCMV6 control cells (cells transfected with ALPL)” value [6] was 22 fold. For the same binder, the “fold change in luciferase activity relative to the pCMV6 control cells (cells transfected with ALPL comprising a deletion of the ER localization signal)” value [7] was 2 fold.
